The values below come from patent US20230340098A1 (SHANGHAI HENLIUS BIOTECH, published 2023).

Where a chain is given by its changes, count along the chain named. Like-named read-outs stand apart in the source and are kept apart here.

Assay [1] addresses T1, human GARP/latent TGFβ1 complex on cells (human, UniProt Q14392 20-662; P01137 30-390).
T1 construct: whole, on cells; also called human GARP/TGFβ1 complex; human GARP/TGFβ complex
Nature of the assay: flow cytometry on human GARP/latent TGFβ1 transfected CHO-S cells, goat anti-human IgG(H+L) FITC. In general terms: A flow cytometer gives signals particle by particle.

Assay [2] concerns the target T1, human GARP/latent TGFβ1 complex on cells. The assay is described as above. This is another data set of the same source.
Assay [3] addresses T2, mouse GARP/latent TGFβ1 complex on transfected CHO-S cells (mouse).
T2 construct: also called mouse GARP/TGFβ1 complex; mouse GARP/TGFβ complex
Nature of the assay: flow cytometry on mouse GARP/latent TGFβ1 transfected CHO-S cells, goat anti-human IgG(H+L) FITC.

Assay [4] deals with T3, human GARP/TGFβ1 complex (protein used in ELISA and Octet) (human, UniProt Q14392 20-627; P01137 30-390, limits assumed).
T3 construct: Coated on plates at 4 µg/ml in the ELISA; also called hGARP/TGFβ1; human GARP/latent TGFβ1 complex
Nature of the assay: Octet. In general terms: Biolayer interferometry detects binding as a change in optical thickness at a sensor tip.

Assay [5] deals with T4, human GARP protein not in any GARP/TGFβ1 complex (protein used in ELISA and Octet) (human, UniProt Q14392 20-627, limits assumed).
T4 construct: Coated on plates at 2 µg/ml in the ELISA; also called hGARP; human GARP alone
T4 sequence (looked up): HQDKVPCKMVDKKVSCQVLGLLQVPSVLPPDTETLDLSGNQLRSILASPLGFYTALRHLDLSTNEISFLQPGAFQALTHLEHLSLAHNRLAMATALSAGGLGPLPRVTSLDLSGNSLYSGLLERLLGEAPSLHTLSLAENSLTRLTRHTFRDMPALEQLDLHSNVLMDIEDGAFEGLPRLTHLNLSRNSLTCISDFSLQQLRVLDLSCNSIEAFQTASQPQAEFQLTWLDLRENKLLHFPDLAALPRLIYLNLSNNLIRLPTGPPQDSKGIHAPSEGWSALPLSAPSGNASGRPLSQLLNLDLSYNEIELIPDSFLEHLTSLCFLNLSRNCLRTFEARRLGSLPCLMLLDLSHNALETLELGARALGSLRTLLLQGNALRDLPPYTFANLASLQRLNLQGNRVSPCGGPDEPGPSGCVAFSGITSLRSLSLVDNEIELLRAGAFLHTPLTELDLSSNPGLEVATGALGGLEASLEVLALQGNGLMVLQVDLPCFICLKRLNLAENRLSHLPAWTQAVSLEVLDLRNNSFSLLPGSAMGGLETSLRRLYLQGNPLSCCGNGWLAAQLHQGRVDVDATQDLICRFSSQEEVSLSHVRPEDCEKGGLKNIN
Nature of the assay: Octet.

B1: Clone GA1#7 (antibody, V domains shown)
VH: QVQLVQSGGGVVQPGRSLRLSCAASGFTFSSYAMHQVRQAPGKGLEWVAVISYDGSQKYYADSVKGRFTISRDNSKNTLYLQMNSLRAEDTAVYYCARDALRTYYYYGMDVWGQGTTVTVSS
VL: SYELTQPPSVSVSPGQTARITCSGDALPDRYTYWYQQKPGQAPVLVIYSDNERPSGIPERFSGSSSGTTATLTINGVQAEDEADYYCQSSDDTYTFGGGTKLTVL
As to B1, the “EC50 (read off the curve)” value in assay [1] is roughly 1 mg/L.

B2: Clone GA1 (antibody, V domains shown)
VH: B1 VH with Q57N, A100V
VL: B1 VL with S13F, T69I, S90A
In the case of B2, the entries for the concentration giving a half-maximal response (EC50 (read off the curve)) in assay [2], in assay [3] and in assay [1] were roughly 0.6 mg/L, roughly 0.2 mg/L and roughly 1 mg/L, respectively.

B3: Clone GA1#8 (antibody, V domains shown)
VH: B1 VH with V50S, Q57N, Y107Q
VL: B1 VL with S55R, S90A, D92Y
Consider B3, for which binding in assay [4] was characterised by a dissociation constant (Kd) of 0.281 nM. Besides, the half-maximal effective concentration (EC50 (read off the curve)) in assay [1] was roughly 1 mg/L.

B4: Clone hGA17 (antibody, human IgG1, kappa, V domains shown)
VH: QVQLVQSGAEVKKPGASVKVSCKASGFNIKDTYFHWVRQAPGQGLEWMGRIDPTNGNGRYAQKFQGRVTMTRDTSTSTVYMELSSLRSEDTAVYYCATSTGTGYFALVYWGQGTTVTVSS
VL: DIQLTQSPSFLSASVGDRVTITCKASQNVGSAVAWYQQKPGKAPKLLIYWSSTRHTGVPSRFSGSGSGTEFTLTISSLQPEDFATYYCQQYSNYPLTFGGGTKLEIKR
notes: Humanized form of mouse clone GA17; kappa light chain
With B4, the figures for the Kd in assay [4] and in assay [5] were 0.696 nM and 0.429 nM, respectively.

The EC50 (read off the curve) is the concentration at which the effect is half-maximal. What is called Kd is the concentration at which binding is half-saturated. Low values mean tighter binding, high ones weaker binding.
